T1: CD20 on CD20+ Raji cells (UniProt P11836 1-297, limits assumed)
T1 construct: whole, on cells; Endogenous CD20 of the Raji cell line; also called TAA (CD20)
T1 sequence (looked up): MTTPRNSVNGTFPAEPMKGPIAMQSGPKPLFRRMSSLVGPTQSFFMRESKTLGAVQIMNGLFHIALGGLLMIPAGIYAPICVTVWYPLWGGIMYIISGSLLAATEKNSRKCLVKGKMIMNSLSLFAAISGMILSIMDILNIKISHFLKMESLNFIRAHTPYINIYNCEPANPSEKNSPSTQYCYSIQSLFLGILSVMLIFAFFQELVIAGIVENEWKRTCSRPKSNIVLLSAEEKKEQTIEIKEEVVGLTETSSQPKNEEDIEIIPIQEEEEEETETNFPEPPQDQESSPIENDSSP

B1: TK20-17C7-01 anti-TMIGD2/anti-CD20 bispecific antibody (bispecific antibody, human IgG1, kappa, L234A L235A)
heavy: not shown
light: QIVLSQSPAILSASPGEKVTMTCRASSSVSYIHWFQQKPGSSPKPWIYATSNLASGVPVRFSGSGSGTSYSLTISRVEAEDAATYYCQQWTSNPPTFGGGTKLEIKRTVAAPSVFIFPPSDEQLKSGTASVVCLLNNFYPREAKVQWKVDNALQSGNSQESVTEQDSKDSTYSLSSTLTLSKADYEKHKVYACEVTHQGLSSPVTKSFNRGEC
notes: Tetravalent Morrison format; copies: 2 + 2
B2: TK20-29F8-16 anti-TMIGD2/anti-CD20 bispecific antibody (bispecific antibody, human IgG1, kappa, L234A L235A)
heavy: not shown
light: QIVLSQSPAILSASPGEKVTMTCRASSSVSYIHWFQQKPGSSPKPWIYATSNLASGVPVRFSGSGSGTSYSLTISRVEAEDAATYYCQQWTSNPPTFGGGTKLEIKRTVAAPSVFIFPPSDEQLKSGTASVVCLLNNFYPREAKVQWKVDNALQSGNSQESVTEQDSKDSTYSLSSTLTLSKADYEKHKVYACEVTHQGLSSPVTKSFNRGEC
notes: as for B1
B3: TK20-39C9-2134 anti-TMIGD2/anti-CD20 bispecific antibody (bispecific antibody, human IgG1, kappa, L234A L235A)
heavy: not shown
light: QIVLSQSPAILSASPGEKVTMTCRASSSVSYIHWFQQKPGSSPKPWIYATSNLASGVPVRFSGSGSGTSYSLTISRVEAEDAATYYCQQWTSNPPTFGGGTKLEIKRTVAAPSVFIFPPSDEQLKSGTASVVCLLNNFYPREAKVQWKVDNALQSGNSQESVTEQDSKDSTYSLSSTLTLSKADYEKHKVYACEVTHQGLSSPVTKSFNRGEC
notes: as for B1

Each binder was assayed against T1, CD20 on CD20+ Raji cells (assay: Raji co-culture with TMIGD2-Jurkat NFAT reporter cells; binding told in words, not measured directly).
Protocol: Raji cells (2×10⁴) were plated in a 96-well white flat bottom tissue culture plate with anti-TMIGD2/anti-CD20 bispecific antibodies (TK20-17C7-01, TK20-29F8-16, and TK20-39C9-2134) in 50 μl R10 medium (RPMI 1640+10% Fetal bovine serum) at 3-fold serial dilutions ranging from 10-0.5 μg/mL. An anti-CD20 (IgG1 LALA) was included as a negative control. The cells were incubated at 37° C. for 30 minutes. TMIGD2-Jurkat NFAT reporter cells (4×10⁴) were added to each well with 1 μg/mL anti-CD3 antibody (OKT3) in 50 μl R10 medium. Cells were incubated at 37° C. for 6 hours and 100 ul of Bio-Glo™ luciferase assay reagent (Promega®, G7940) was added to each well. Luciferase activity was measured on a plate reader.

Binder | binding result
B1 | binds
B2 | binds
B3 | binds

From patent publication US20250138018A1 (NEXTPOINT THERAPEUTICS, published 2025)
